From patent US20200390811A1

System: RISR-RIAD peptide with myc and ddk (FLAG) tags, expressed in T cells
Sequence (chain, as listed by the source): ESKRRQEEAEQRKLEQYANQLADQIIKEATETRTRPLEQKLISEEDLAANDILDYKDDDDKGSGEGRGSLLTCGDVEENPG

Protein kinase A (PKA), RI regulatory subunit
phosphorylation of Csk-S364 and Lck-Y505 (blot, FIG. 2): RISR-RIAD expression prevented phosphorylation of Csk-S364 and Lck-Y505
